# Biological target: pre-existing anti-drug antibodies (ADA) present in human sera
# Assay: ELISA pre-existing ADA binding assay, confirmatory setup, test molecule coated, 20 human sera
% positives of total tested serum samples [%],No of positive serum samples above 30% CCP (serum samples),Binder
15,3,PRO2741 (protein) chain 1: DIQMTQSPSSLSASVGDRVTITCQASESIYSSLAWYQQKPGKAPKLLIYLASTLASGVPSRFSGSGSGTDFTLTISSLQPEDFATYYCQSTDYTTSTHRNSFGTGTKVTVLGGGGGSGGGGSGGGGSGGGGSEVQLVESGGGRVQPGGSLRLSCAASGFSFSTTYYMCWVRQAPGKGLEWIGCTNTASSVRTYYATWAKGRFTISRDNSKNTVYLQMNSLRAEDTATYYCARDMGFADYALNLWGQGTQVTVSSGGGGSGGGGSEVQLVESGGGRVQPGGSLRLSCAASGFSLSSYDMSWVRQAPGKGLAWIGASYASGPTYYASWAKGRFTISRDNSKNTVYLQMNSLRAEDTATYFCARGGWTGTSHSNIWGQGTQVTVSSGGGSGGGSGGGSGEVQLVESGGGRVQPGGSLRLSCAASGFSLSSYAMNWVRQAPGKCLEWIGHINAGDIAYYATWAKGRFTISRDNSKNTVYLQMNSLRAEDTATYFCARGAGGFSTGPFKLWGQGTQVTVSS chain 2: DIQMTQSPSSLSASVGDRVTITCQASESIYSSLAWYQQKPGKAPKLLIYLASTLASGVPSRFSGSGSGTDFTLTISSLQPEDFATYYCQSTDYTTSTHRNSFGTGTKVTVLGGGGGSGGGGSGGGGSGGGGSEVQLVESGGGRVQPGGSLRLSCAASGFSFSTTYYMCWVRQAPGKGLEWIGCTNTASSVRTYYATWAKGRFTISRDNSKNTVYLQMNSLRAEDTATYYCARDMGFADYALNLWGQGTQVTVSSGGGGSGGGGSAFELTQSPSSLSASVGDRVTITCQASESINSRLAWYQQKPGQPPKLLIYDASDLTSGVPSRFSGSGSGTDFTLTISSLQPEDFATYYCQGYGGSSTTTFGCGTKLTVLGGGSGGSDIQMTQSPSSLSASVGDRVTITCQSSQSVFSNNYLAWFQQKPGQSPKRLIYSASTLASGVPSRFSGSGSGTDFTLTISSLQPEDFATYYCLGSYACSSADCYVFGTGTKVTVLG
25,5,PRO2984 (scFv) scFv: DIQMTQSPASLSASVGDRVTITCQASQSIGTYLAWYQQKPGKPPKLLIYRAFILASGVPSRFSGSGSGTDFTLTISSLQPEDFATYYCQSNFYSDSTTIGPNAFGTGTKVTVLGGGGGSGGGGSGGGGSGGGGSEVQLVESGGGSVQPGGSLRLSCAASGFSFNSDYWIYWVRQAPGKGLEWIASIYGGSSGNTQYASWAQGRFTISRDNSKNTVYLQMNSLRAEDTATYFCARGYVDYGGATDLWGQGTTVTVSS
25,5,PRO2990 (scFv) scFv: DIQMTQSPSSLSASVGDRVTITCQASESIYSSLAWYQQKPGKAPKLLIYLASTLASGVPSRFSGSGSGTDFTLTISSLQPEDFATYYCQSTDYTTSTHRNSFGTGTKVTVLGGGGGSGGGGSGGGGSGGGGSEVQLVESGGGSVQPGGSLRLSCAASGFSFSTTYYMCWVRQAPGKGLEWIGCTNTASSVRTYYATWAKGRFTISRDNSKNTVYLQMNSLRAEDTATYYCARDMGFADYALNLWGQGTTVTVSS

# Source: patent US20240084039A1
